B1: Irga6 (IIGP1), wild type, recombinant, GST cleaved off (enzyme, mouse)
chain: MGQLFSSPKSDENNDLPSSFTGYFKKFNTGRKIISQEILNLIELRMRKGNIQLTNSAISDALKEIDSSVLNVAVTGETGSGKSSFINTLRGIGNEEEGAAKTGVVEVTMERHPYKHPNIPNVVFWDLPGIGSTNFPPNTYLEKMKFYEYDFFIIISATRFKKNDIDIAKAISMMKKEFYFVRTKVDSDITNEADGKPQTFDKEKVLQDIRLNCVNTFRENGIAEPPIFLLSNKNVCHYDFPVLMDKLISDLPIYKRHNFMVSLPNITDSVIEKKRQFLKQRIWLEGFAADLVNIIPSLTFLLDSDLETLKKSMKFYRTVFGVDETSLQRLARDWEIEVDQVEAMIKSPAVFKPTDEETIQERLSRYIQEFCLANGYLLPKNSFLKEIFYLKYYFLDMVTEDAKTLLKEICL
notes: Irga6 (IIGP1), mouse immunity-related GTPase; also called WT Irga6; source: E. coli BL21, purified (glutathione Sepharose, GST cleaved off with thrombin, Superdex 75); not shown: GST, N-terminal, cleaved
B2: Irga6-E106N (enzyme, mouse)
chain: MGQLFSSPKSDENNDLPSSFTGYFKKFNTGRKIISQEILNLIELRMRKGNIQLTNSAISDALKEIDSSVLNVAVTGETGSGKSSFINTLRGIGNEEEGAAKTGVVNVTMERHPYKHPNIPNVVFWDLPGIGSTNFPPNTYLEKMKFYEYDFFIIISATRFKKNDIDIAKAISMMKKEFYFVRTKVDSDITNEADGKPQTFDKEKVLQDIRLNCVNTFRENGIAEPPIFLLSNKNVCHYDFPVLMDKLISDLPIYKRHNFMVSLPNITDSVIEKKRQFLKQRIWLEGFAADLVNIIPSLTFLLDSDLETLKKSMKFYRTVFGVDETSLQRLARDWEIEVDQVEAMIKSPAVFKPTDEETIQERLSRYIQEFCLANGYLLPKNSFLKEIFYLKYYFLDMVTEDAKTLLKEICL
notes: Irga6 (IIGP1), mouse; mutant made in pGEX-4T-2-Irga6; source: E. coli BL21, purified (glutathione Sepharose, GST cleaved off with thrombin, Superdex 75); not shown: GST, N-terminal, cleaved
B3: Irga6-K246E (enzyme, mouse)
chain: MGQLFSSPKSDENNDLPSSFTGYFKKFNTGRKIISQEILNLIELRMRKGNIQLTNSAISDALKEIDSSVLNVAVTGETGSGKSSFINTLRGIGNEEEGAAKTGVVEVTMERHPYKHPNIPNVVFWDLPGIGSTNFPPNTYLEKMKFYEYDFFIIISATRFKKNDIDIAKAISMMKKEFYFVRTKVDSDITNEADGKPQTFDKEKVLQDIRLNCVNTFRENGIAEPPIFLLSNKNVCHYDFPVLMDELISDLPIYKRHNFMVSLPNITDSVIEKKRQFLKQRIWLEGFAADLVNIIPSLTFLLDSDLETLKKSMKFYRTVFGVDETSLQRLARDWEIEVDQVEAMIKSPAVFKPTDEETIQERLSRYIQEFCLANGYLLPKNSFLKEIFYLKYYFLDMVTEDAKTLLKEICL
notes: Irga6 (IIGP1), mouse; mutant made in pGEX-4T-2-Irga6; not shown: GST, N-terminal, cleaved
B4: Irga6-R31E-K32E (enzyme, mouse)
chain: MGQLFSSPKSDENNDLPSSFTGYFKKFNTGEEIISQEILNLIELRMRKGNIQLTNSAISDALKEIDSSVLNVAVTGETGSGKSSFINTLRGIGNEEEGAAKTGVVEVTMERHPYKHPNIPNVVFWDLPGIGSTNFPPNTYLEKMKFYEYDFFIIISATRFKKNDIDIAKAISMMKKEFYFVRTKVDSDITNEADGKPQTFDKEKVLQDIRLNCVNTFRENGIAEPPIFLLSNKNVCHYDFPVLMDKLISDLPIYKRHNFMVSLPNITDSVIEKKRQFLKQRIWLEGFAADLVNIIPSLTFLLDSDLETLKKSMKFYRTVFGVDETSLQRLARDWEIEVDQVEAMIKSPAVFKPTDEETIQERLSRYIQEFCLANGYLLPKNSFLKEIFYLKYYFLDMVTEDAKTLLKEICL
notes: Irga6 (IIGP1), mouse; mutant made in pGEX-4T-2-Irga6; also called Arg31, Lys32 mutant; not shown: GST, N-terminal, cleaved
B5: Irga6-K169E (enzyme, mouse)
chain: MGQLFSSPKSDENNDLPSSFTGYFKKFNTGRKIISQEILNLIELRMRKGNIQLTNSAISDALKEIDSSVLNVAVTGETGSGKSSFINTLRGIGNEEEGAAKTGVVEVTMERHPYKHPNIPNVVFWDLPGIGSTNFPPNTYLEKMKFYEYDFFIIISATRFKKNDIDIAEAISMMKKEFYFVRTKVDSDITNEADGKPQTFDKEKVLQDIRLNCVNTFRENGIAEPPIFLLSNKNVCHYDFPVLMDKLISDLPIYKRHNFMVSLPNITDSVIEKKRQFLKQRIWLEGFAADLVNIIPSLTFLLDSDLETLKKSMKFYRTVFGVDETSLQRLARDWEIEVDQVEAMIKSPAVFKPTDEETIQERLSRYIQEFCLANGYLLPKNSFLKEIFYLKYYFLDMVTEDAKTLLKEICL
notes: as for B3
B6: Irga6-R210E (enzyme, mouse)
chain: MGQLFSSPKSDENNDLPSSFTGYFKKFNTGRKIISQEILNLIELRMRKGNIQLTNSAISDALKEIDSSVLNVAVTGETGSGKSSFINTLRGIGNEEEGAAKTGVVEVTMERHPYKHPNIPNVVFWDLPGIGSTNFPPNTYLEKMKFYEYDFFIIISATRFKKNDIDIAKAISMMKKEFYFVRTKVDSDITNEADGKPQTFDKEKVLQDIELNCVNTFRENGIAEPPIFLLSNKNVCHYDFPVLMDKLISDLPIYKRHNFMVSLPNITDSVIEKKRQFLKQRIWLEGFAADLVNIIPSLTFLLDSDLETLKKSMKFYRTVFGVDETSLQRLARDWEIEVDQVEAMIKSPAVFKPTDEETIQERLSRYIQEFCLANGYLLPKNSFLKEIFYLKYYFLDMVTEDAKTLLKEICL
notes: as for B3
B7: Irga6-K176E (enzyme, mouse)
chain: MGQLFSSPKSDENNDLPSSFTGYFKKFNTGRKIISQEILNLIELRMRKGNIQLTNSAISDALKEIDSSVLNVAVTGETGSGKSSFINTLRGIGNEEEGAAKTGVVEVTMERHPYKHPNIPNVVFWDLPGIGSTNFPPNTYLEKMKFYEYDFFIIISATRFKKNDIDIAKAISMMKEEFYFVRTKVDSDITNEADGKPQTFDKEKVLQDIRLNCVNTFRENGIAEPPIFLLSNKNVCHYDFPVLMDKLISDLPIYKRHNFMVSLPNITDSVIEKKRQFLKQRIWLEGFAADLVNIIPSLTFLLDSDLETLKKSMKFYRTVFGVDETSLQRLARDWEIEVDQVEAMIKSPAVFKPTDEETIQERLSRYIQEFCLANGYLLPKNSFLKEIFYLKYYFLDMVTEDAKTLLKEICL
notes: as for B3
B8: Irga6-E106A (enzyme, mouse)
chain: MGQLFSSPKSDENNDLPSSFTGYFKKFNTGRKIISQEILNLIELRMRKGNIQLTNSAISDALKEIDSSVLNVAVTGETGSGKSSFINTLRGIGNEEEGAAKTGVVAVTMERHPYKHPNIPNVVFWDLPGIGSTNFPPNTYLEKMKFYEYDFFIIISATRFKKNDIDIAKAISMMKKEFYFVRTKVDSDITNEADGKPQTFDKEKVLQDIRLNCVNTFRENGIAEPPIFLLSNKNVCHYDFPVLMDKLISDLPIYKRHNFMVSLPNITDSVIEKKRQFLKQRIWLEGFAADLVNIIPSLTFLLDSDLETLKKSMKFYRTVFGVDETSLQRLARDWEIEVDQVEAMIKSPAVFKPTDEETIQERLSRYIQEFCLANGYLLPKNSFLKEIFYLKYYFLDMVTEDAKTLLKEICL
notes: as for B2
B9: Irga6-D186N (enzyme, mouse)
chain: MGQLFSSPKSDENNDLPSSFTGYFKKFNTGRKIISQEILNLIELRMRKGNIQLTNSAISDALKEIDSSVLNVAVTGETGSGKSSFINTLRGIGNEEEGAAKTGVVEVTMERHPYKHPNIPNVVFWDLPGIGSTNFPPNTYLEKMKFYEYDFFIIISATRFKKNDIDIAKAISMMKKEFYFVRTKVNSDITNEADGKPQTFDKEKVLQDIRLNCVNTFRENGIAEPPIFLLSNKNVCHYDFPVLMDKLISDLPIYKRHNFMVSLPNITDSVIEKKRQFLKQRIWLEGFAADLVNIIPSLTFLLDSDLETLKKSMKFYRTVFGVDETSLQRLARDWEIEVDQVEAMIKSPAVFKPTDEETIQERLSRYIQEFCLANGYLLPKNSFLKEIFYLKYYFLDMVTEDAKTLLKEICL
notes: Irga6 (IIGP1), mouse; mutant made in pGEX-4T-2-Irga6; also called G4-motif mutant; source: E. coli BL21, purified (glutathione Sepharose, GST cleaved off with thrombin, Superdex 75); not shown: GST, N-terminal, cleaved
B10: Irga6 with Lys101 mutated to glutamate (enzyme, mouse)
chain: MGQLFSSPKSDENNDLPSSFTGYFKKFNTGRKIISQEILNLIELRMRKGNIQLTNSAISDALKEIDSSVLNVAVTGETGSGKSSFINTLRGIGNEEEGAAETGVVEVTMERHPYKHPNIPNVVFWDLPGIGSTNFPPNTYLEKMKFYEYDFFIIISATRFKKNDIDIAKAISMMKKEFYFVRTKVDSDITNEADGKPQTFDKEKVLQDIRLNCVNTFRENGIAEPPIFLLSNKNVCHYDFPVLMDKLISDLPIYKRHNFMVSLPNITDSVIEKKRQFLKQRIWLEGFAADLVNIIPSLTFLLDSDLETLKKSMKFYRTVFGVDETSLQRLARDWEIEVDQVEAMIKSPAVFKPTDEETIQERLSRYIQEFCLANGYLLPKNSFLKEIFYLKYYFLDMVTEDAKTLLKEICL
notes: Irga6 (IIGP1), mouse; mutant made in pGEX-4T-2-Irga6; also called Lys101 mutant; K101E; source: E. coli BL21, purified (glutathione Sepharose, GST cleaved off with thrombin, Superdex 75); not shown: GST, N-terminal, cleaved
B11: Irga6-E106D (enzyme, mouse)
chain: MGQLFSSPKSDENNDLPSSFTGYFKKFNTGRKIISQEILNLIELRMRKGNIQLTNSAISDALKEIDSSVLNVAVTGETGSGKSSFINTLRGIGNEEEGAAKTGVVDVTMERHPYKHPNIPNVVFWDLPGIGSTNFPPNTYLEKMKFYEYDFFIIISATRFKKNDIDIAKAISMMKKEFYFVRTKVDSDITNEADGKPQTFDKEKVLQDIRLNCVNTFRENGIAEPPIFLLSNKNVCHYDFPVLMDKLISDLPIYKRHNFMVSLPNITDSVIEKKRQFLKQRIWLEGFAADLVNIIPSLTFLLDSDLETLKKSMKFYRTVFGVDETSLQRLARDWEIEVDQVEAMIKSPAVFKPTDEETIQERLSRYIQEFCLANGYLLPKNSFLKEIFYLKYYFLDMVTEDAKTLLKEICL
notes: as for B2
B12: Irga6-E106Q (enzyme, mouse)
chain: MGQLFSSPKSDENNDLPSSFTGYFKKFNTGRKIISQEILNLIELRMRKGNIQLTNSAISDALKEIDSSVLNVAVTGETGSGKSSFINTLRGIGNEEEGAAKTGVVQVTMERHPYKHPNIPNVVFWDLPGIGSTNFPPNTYLEKMKFYEYDFFIIISATRFKKNDIDIAKAISMMKKEFYFVRTKVDSDITNEADGKPQTFDKEKVLQDIRLNCVNTFRENGIAEPPIFLLSNKNVCHYDFPVLMDKLISDLPIYKRHNFMVSLPNITDSVIEKKRQFLKQRIWLEGFAADLVNIIPSLTFLLDSDLETLKKSMKFYRTVFGVDETSLQRLARDWEIEVDQVEAMIKSPAVFKPTDEETIQERLSRYIQEFCLANGYLLPKNSFLKEIFYLKYYFLDMVTEDAKTLLKEICL
notes: as for B2

Target: the molecule itself
Assay: light scattering; self-association (oligomerisation) of 80 μM Irga6 with 10 mM GTP at 37°C; B1 buffer (50 mM Tris/HCl pH 7.4, 5 mM MgCl2)/2 mM DTT; conventional light scattering at 350 or 600 nm

Binding result, binds:
B1
B2
B3
B4
B5
B6
B7
B8
B9
B10
B11
B12

From paper PMC3042988, “The activation mechanism of Irga6, an interferon-inducible GTPase contributing to mouse resistance against Toxoplasma gondii” (BMC Biology, 2011)
